{
  "source": "patent US20040248785A1",
  "key": {"[1]": {"biological_target": "low density lipoprotein receptor-related protein / alpha2-macroglobulin receptor (LRP), isolated from human placenta (human) (UniProt Q07954)", "sequence (Q07954 20-4544)": "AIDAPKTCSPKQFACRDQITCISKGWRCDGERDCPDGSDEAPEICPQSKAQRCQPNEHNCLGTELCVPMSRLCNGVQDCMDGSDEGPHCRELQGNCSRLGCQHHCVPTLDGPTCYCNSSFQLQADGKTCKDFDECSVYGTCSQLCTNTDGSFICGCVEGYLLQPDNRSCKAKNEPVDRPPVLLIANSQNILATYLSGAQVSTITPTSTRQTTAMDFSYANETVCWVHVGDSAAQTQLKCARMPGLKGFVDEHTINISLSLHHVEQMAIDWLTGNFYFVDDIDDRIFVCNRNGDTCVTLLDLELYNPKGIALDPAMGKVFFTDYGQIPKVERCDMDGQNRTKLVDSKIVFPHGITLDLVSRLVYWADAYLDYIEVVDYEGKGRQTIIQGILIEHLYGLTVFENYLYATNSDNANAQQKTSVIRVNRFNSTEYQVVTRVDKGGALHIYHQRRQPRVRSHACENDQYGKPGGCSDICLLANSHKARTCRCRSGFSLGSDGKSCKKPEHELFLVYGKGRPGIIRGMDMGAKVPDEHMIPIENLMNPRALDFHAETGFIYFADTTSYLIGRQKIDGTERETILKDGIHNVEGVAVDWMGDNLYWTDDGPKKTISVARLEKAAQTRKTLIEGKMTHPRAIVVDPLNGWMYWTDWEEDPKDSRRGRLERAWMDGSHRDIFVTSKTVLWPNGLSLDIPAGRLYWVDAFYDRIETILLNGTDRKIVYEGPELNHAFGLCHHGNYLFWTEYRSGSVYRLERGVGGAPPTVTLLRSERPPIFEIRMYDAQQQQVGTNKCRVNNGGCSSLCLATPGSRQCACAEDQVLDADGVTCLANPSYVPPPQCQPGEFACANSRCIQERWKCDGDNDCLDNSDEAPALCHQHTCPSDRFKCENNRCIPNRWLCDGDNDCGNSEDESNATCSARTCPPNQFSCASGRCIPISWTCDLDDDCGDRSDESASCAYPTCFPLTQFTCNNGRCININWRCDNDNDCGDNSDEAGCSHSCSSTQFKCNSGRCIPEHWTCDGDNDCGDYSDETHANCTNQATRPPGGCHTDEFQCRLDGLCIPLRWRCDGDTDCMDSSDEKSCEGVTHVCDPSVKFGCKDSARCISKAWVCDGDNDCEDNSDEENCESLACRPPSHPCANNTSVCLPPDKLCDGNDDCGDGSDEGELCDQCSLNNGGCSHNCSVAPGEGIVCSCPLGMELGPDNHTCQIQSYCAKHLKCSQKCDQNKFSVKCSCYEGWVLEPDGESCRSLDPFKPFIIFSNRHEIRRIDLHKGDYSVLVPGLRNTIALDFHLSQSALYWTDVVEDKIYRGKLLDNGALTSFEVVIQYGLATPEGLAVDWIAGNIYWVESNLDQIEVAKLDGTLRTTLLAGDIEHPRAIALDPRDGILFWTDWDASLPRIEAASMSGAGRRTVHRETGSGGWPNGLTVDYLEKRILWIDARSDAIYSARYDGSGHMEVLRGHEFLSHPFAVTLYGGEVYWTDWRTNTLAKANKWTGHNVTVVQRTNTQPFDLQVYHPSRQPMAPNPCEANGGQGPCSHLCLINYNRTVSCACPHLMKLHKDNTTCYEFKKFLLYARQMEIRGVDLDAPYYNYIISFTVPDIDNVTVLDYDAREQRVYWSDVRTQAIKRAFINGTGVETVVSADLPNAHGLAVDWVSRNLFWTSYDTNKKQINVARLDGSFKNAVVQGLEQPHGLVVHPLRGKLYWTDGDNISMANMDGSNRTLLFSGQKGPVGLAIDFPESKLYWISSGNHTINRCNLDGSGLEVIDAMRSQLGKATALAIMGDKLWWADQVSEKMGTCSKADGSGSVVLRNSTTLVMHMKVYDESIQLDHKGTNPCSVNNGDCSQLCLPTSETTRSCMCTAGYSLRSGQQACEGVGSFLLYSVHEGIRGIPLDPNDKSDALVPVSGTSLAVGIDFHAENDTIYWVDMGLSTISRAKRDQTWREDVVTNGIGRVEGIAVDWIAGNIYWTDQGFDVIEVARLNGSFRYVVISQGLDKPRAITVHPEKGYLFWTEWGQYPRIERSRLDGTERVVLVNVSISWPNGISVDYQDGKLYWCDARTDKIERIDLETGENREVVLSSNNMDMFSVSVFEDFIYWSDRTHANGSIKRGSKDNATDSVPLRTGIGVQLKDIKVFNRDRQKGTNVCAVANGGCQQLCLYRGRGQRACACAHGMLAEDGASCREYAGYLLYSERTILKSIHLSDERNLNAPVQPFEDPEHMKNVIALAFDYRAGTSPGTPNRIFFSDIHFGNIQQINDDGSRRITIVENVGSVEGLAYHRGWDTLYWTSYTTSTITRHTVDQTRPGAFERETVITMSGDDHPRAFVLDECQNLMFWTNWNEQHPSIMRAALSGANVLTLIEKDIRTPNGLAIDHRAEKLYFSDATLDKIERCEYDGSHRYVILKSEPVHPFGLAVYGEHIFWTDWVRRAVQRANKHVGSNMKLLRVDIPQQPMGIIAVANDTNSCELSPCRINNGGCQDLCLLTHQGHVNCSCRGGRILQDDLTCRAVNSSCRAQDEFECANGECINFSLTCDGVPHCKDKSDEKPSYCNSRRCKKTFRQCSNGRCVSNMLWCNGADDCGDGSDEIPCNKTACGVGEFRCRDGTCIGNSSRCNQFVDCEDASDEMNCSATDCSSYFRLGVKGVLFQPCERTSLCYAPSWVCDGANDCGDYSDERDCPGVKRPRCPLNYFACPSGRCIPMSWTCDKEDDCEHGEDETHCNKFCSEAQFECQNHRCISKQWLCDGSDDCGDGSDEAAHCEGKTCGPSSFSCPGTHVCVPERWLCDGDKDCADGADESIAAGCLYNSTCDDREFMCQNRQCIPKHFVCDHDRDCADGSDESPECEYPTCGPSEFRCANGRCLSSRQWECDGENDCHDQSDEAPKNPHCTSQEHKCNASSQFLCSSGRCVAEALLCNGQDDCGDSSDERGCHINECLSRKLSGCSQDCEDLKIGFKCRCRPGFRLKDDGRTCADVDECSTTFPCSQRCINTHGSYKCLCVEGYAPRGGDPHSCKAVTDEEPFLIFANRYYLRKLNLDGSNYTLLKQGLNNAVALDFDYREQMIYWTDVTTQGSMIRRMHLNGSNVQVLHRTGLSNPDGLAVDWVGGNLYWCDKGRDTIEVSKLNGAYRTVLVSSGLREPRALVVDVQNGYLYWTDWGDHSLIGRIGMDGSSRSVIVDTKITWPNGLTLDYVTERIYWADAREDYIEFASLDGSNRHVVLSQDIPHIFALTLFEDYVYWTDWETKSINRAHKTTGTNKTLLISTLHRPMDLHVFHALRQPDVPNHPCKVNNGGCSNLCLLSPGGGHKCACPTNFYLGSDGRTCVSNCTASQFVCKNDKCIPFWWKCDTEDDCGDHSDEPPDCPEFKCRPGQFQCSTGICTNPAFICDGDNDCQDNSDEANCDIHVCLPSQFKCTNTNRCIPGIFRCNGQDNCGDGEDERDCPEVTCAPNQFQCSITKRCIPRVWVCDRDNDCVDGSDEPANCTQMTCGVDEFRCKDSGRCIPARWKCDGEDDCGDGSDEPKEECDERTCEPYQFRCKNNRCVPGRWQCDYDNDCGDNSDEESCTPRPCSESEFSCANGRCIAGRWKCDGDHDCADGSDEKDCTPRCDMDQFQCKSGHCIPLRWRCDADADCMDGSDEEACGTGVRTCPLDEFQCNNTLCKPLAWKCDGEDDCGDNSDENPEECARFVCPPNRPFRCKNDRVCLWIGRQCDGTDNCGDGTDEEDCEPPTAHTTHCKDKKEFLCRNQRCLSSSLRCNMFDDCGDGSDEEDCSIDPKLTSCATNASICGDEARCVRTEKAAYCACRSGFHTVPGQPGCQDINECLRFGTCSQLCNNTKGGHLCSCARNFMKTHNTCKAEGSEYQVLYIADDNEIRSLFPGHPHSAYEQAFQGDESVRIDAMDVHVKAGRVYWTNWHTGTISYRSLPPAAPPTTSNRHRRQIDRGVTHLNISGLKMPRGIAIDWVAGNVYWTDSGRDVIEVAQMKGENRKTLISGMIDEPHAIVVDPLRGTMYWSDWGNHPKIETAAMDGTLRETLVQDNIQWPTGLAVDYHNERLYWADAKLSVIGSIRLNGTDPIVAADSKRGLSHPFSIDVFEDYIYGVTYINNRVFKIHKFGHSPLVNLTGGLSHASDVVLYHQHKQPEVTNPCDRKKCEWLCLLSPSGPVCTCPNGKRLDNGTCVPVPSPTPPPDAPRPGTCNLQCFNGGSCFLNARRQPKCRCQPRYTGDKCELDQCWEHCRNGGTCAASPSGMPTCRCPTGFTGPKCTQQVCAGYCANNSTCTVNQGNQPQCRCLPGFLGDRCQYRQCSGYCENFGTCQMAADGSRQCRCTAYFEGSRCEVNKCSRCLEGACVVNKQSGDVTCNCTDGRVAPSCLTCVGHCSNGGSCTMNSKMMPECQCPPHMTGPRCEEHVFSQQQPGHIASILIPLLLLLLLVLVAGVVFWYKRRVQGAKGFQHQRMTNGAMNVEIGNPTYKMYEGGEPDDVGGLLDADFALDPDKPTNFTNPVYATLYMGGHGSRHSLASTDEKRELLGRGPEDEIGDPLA", "experiment": "homologous displacement on LRP-coated wells"}, "[2]": {"biological_target": "low density lipoprotein receptor-related protein / alpha2-macroglobulin receptor (LRP), isolated from human placenta (human) (UniProt Q07954)", "experiment": "homologous displacement of 125I-fVIII (1 nM) by unlabeled fVIII on LRP-coated wells, single class of sites, LIGAND"}, "[3]": {"biological_target": "low density lipoprotein receptor-related protein / alpha2-macroglobulin receptor (LRP), isolated from human placenta (human) (UniProt Q07954)", "experiment": "solid-phase homologous ligand displacement: 125I-fVIII (1 nM) on LRP-coated wells, 1 h at 37 C, rising unlabeled fVIII"}},
  "data": [
    {"substance": "factor VIII (fVIII), purified from therapeutic concentrates of Method M, American Red Cross, P00451 20-1667; P00451 1668-2351", "values": [
      {"measurement": "percent of 125I-fVIII binding competed by an excess of unlabeled fVIII", "setting": "[1]", "result": "> 90", "unit": "%"},
      {"measurement": "Kd", "setting": "[2]", "result": 116, "unit": "nM"},
      {"measurement": "IC50 (read off the curve)", "setting": "[3]", "result": 100, "unit": "nM"}
    ]}
  ]
}
